Experiment [1] addresses HA ectodomain of wild-type A/California/07/2009 (pdm2009) (Influenza A virus A/California/07/2009 …). Briefly: BLI.
Experiment [2] deals with T1, HA of A/USSR/92/1977 (Influenza A virus A/USSR/92/1977 …, UniProt P03453, strain). Briefly: cell-based or functional assay.
The target in experiment [3] is T1, HA of A/USSR/92/1977. Kind of experiment: BLI. (BLI is a label-free optical method that tracks binding on a fibre tip over time.)

B1: Fab of antibody D1 H1–2 (donor 1, 2011–12 cohort) (Fab, V domains shown)
VH: QVQLQESGPGLVKPSETLSLRCAVSGSSISSLFYWGWIRQPPGKGPEWIGSIYHSGSTYYNPSLKSRVTISVDASKTQFSLNLNSVTAADTAVYYCAREYRILDERSNYFDAWGQGSPVTVSS
VL: SYELTQPPSVSVSPGQTVSITCSGDKMGDKYASWYQQKPGQSPFLVIYQDNKRPSGIPERFSGSNSGNTATLTISGTQAMDEADYYCQTWDISSGVVFGGGTKL
As usually defined, the Kd is the concentration at which binding is half-saturated. A lower Kd goes with a tighter complex. In experiment [1], B1 returned a Kd of more than 100 µM.

B2: Fab of antibody D1 H1–53 (donor 1, 2011–12 cohort) (Fab, V domains shown)
VH: QVQLQESGPGLVKPSETLSLTCTVSGGSITNYFWSWIRQPPGKGLEWIGYISYSGSTNHNPSLKSRVTMSLDTSKKQFSLKLSSVTAADMAVYFCARGERFGESPYYSYHMDVWGQGTTVTVSS
VL: not shown
For B2, the Kd in experiment [1] is more than 100 µM.

B3: Fab of inferred intermediate I-2 of lineage CL6515 (Fab, V domains shown)
VH: EVQLVQSGAEVKKPGESLKISCKGSGYSFTSYWIGWVRQMPGKGLEWMGIIYPGDSDTRYSPSFQGQVTISADKSISTAYLQWSSLKASDTAMYYCARVVADREGFGYYYGMDVWGQGTTVTVSS
VL: EIVLTQSPGTLSLSPGERATLSCRASQSVDSSSLAWYQQKPGQAPRLLIYAASSRATGIPDRFSGSGSGTDFTLTISRLEPEDFAVYYCQQCGSSPWTFGQGTKVEIK
For the molecule B3, in the experiment with HA of A/USSR/92/1977 [2], the “IC50 of neutralisation (microneutralization, MDCK cells) of A/USSR/92/1977 virus” value was determined as 0.012 µg/mL. The molecule also displayed an equilibrium dissociation constant (Kd) in the experiment with HA of A/USSR/92/1977 [3] of 1.9 µM.

B4:  (Fab, V domains shown)
VH: EVQLVQSGAEVKKPGESLKISCKGSGYSFTSYWIGWVRQMPGKGLEWMGIIYPGDSDTRYSPSFQGQVTISADKSISTAYLQWSSLKASDTAMYYCARVVADREGFGYYYGMDVWGQGTTVTVSS
VL: not shown
As for B4, the equilibrium dissociation constant (Kd) in experiment [1] is more than 50 µM.

B5: Fab of antibody D1 H1–12 (donor 1, 2011–12 cohort) (Fab, V domains shown)
VH: QVQLQESGPGLVKPSETLSLTCSVSGGSLNTYYWSWIRQPPGKGLEWIGYIYYSGNTNYNPSLKSRVAISVDTSKNQFSLKLTSVTAADTAVYYCARLYMVRGELWGFYFDHWGQGTLVTVSS
VL: QSVLTQPASVSGSPGQSITISCTGTSSDVGSYNLVSWYQHHPGKAPKLMIYEDIERPSGVSNRFSGSKSGNTASLTISGLQAEDEGDYYCCSYAGSSTSWVFGGGTKLTVL
Consider B5, for which, in experiment [1], the Kd was more than 100 µM.

Values taken from publication PMC5485662 (Nature medicine, 2016).
